{
  "source": "paper PMC7790460",
  "about": "“An RNA Repair Operon Regulated by Damaged tRNAs”",
  "key": {"[1]": {"molecular_target": "RtcR transcriptional activator (full-length S. Typhimurium RtcR) (S. Typhimurium)", "experiment": "SEC; RtcR (48 uM) mixed with 48 uM refolded 5' tRNA-Leu(UAG) halves ending in 2',3'-cyclic phosphate; Superdex 200 Increase 10/300; 20 mM Tris-HCl pH 7.5, 100 mM NaCl, 1 mM MgCl2, 2% glycerol, 0.5% Tween 20, 1 mM ATP; peaks analysed by SDS-PAGE and denaturing gels"}, "RtcR (full-length)": {"molecular_target": "T1, RtcR (full-length) (Salmonella enterica serovar Typhimurium …, UniProt Q8ZLH7 1-527)", "T1 sequence": "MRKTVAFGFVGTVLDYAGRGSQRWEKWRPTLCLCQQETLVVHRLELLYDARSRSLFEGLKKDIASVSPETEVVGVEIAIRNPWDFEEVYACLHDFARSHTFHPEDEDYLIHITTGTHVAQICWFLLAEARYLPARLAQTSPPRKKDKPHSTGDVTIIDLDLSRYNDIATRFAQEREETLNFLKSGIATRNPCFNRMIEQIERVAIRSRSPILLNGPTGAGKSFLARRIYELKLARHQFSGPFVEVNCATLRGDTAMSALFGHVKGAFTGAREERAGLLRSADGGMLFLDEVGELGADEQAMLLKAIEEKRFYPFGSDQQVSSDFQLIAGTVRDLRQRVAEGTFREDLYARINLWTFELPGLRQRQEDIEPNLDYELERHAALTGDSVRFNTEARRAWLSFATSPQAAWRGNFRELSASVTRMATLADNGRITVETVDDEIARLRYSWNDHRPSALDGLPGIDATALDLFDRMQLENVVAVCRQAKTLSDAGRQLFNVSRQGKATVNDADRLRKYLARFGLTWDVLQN", "experiment": "EMSA; 1 mM ATP; 20 mM Tris-HCl pH 7.5, 50 mM NaCl, 1 mM MgCl2, 0.05% Tween 20; 1 mM ATP for RtcR; 30 min at 4 C then 30 min at room temperature; RNA 1 nM", "conditions": "protein: recombinant; chain copies: 2; label: 5'-32P (EMSA)"}, "RtcR CARF domain": {"molecular_target": "T2, RtcR CARF domain (Salmonella enterica serovar Typhimurium …, UniProt Q8ZLH7 1-188)", "T2 sequence": "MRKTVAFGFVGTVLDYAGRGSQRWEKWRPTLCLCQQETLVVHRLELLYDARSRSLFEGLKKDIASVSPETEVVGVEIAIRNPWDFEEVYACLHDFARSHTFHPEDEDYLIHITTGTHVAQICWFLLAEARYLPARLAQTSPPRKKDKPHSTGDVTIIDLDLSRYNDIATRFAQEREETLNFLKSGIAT", "experiment": "EMSA; 20 mM Tris-HCl pH 7.5, 50 mM NaCl, 1 mM MgCl2, 0.05% Tween 20; 1 mM ATP for RtcR; 30 min at 4 C then 30 min at room temperature; RNA 1 nM", "conditions": "protein: recombinant; chain copies: 2; label: 5'-32P (EMSA)"}},
  "note": "Values joined by “and” are separate entries in the source; they are usually repeats but may differ in a detail not shown here. Equal values may be shown once.",
  "data": [
    {"molecule": "RtcR transcriptional activator (full-length S. Typhimurium RtcR) (natural protein)", "values": [
      {"measurement": "stoichiometry N", "setting": "[1]", "result": "6 and 2"}
    ]},
    {"molecule": "GCGGGAGUGGCGAAAUUGGUAGACGCACCAGAUUUAG (structured_RNA, 2',3'-cyclic phosphate 3' end)", "note": "[tRNALeu(UAG) 5' half, after G of anticodon, cyclic phosphate]", "values": [
      {"measurement": "apparent K (half saturation)", "setting": "RtcR (full-length)", "result": "~125", "unit": "nM"},
      {"measurement": "apparent K (half saturation)", "setting": "RtcR CARF domain", "result": "~200", "unit": "nM"}
    ]},
    {"molecule": "GCGGGAGUGGCGAAAUUGGUAGACGCACCAGAUUUAG (structured_RNA, 3'-phosphate)", "note": "[tRNALeu(UAG) 5' half, after G of anticodon, 3'-phosphate]", "values": [
      {"measurement": "binding result", "setting": "RtcR CARF domain", "result": "no binding"}
    ]}
  ]
}
